In the DeepSol protein solubility set:

Assay: soluble on expression in E. coli; label from the status in PepcDB or PDB records

Row | Sequence | soluble on expression in E. coli
1 | AIATLLDWMNVCSVEIPKRIIAKHFSACQHTNQEVFSLDDSLAGLDECLHCEDSQQNHRKVSPGQTLRIVMIGKTGVGKSAVGNTILNREVFESKPSANSITQSCRKASVYDTREIYVIDTPGILDTSKEKDIIKREIVKCIKVSAPGPHAFLLVIQIGRFTAEEQRAVQALQELFGEDASNYMIVLFTHGDLLKGQTIDQYVREGHIELRRVIQSCGGRYAVFNNTMKDRTQVKTLIDKIDQMVAVNGGECYTQEMFREAEEKIRQQKEKREIAELQEYQFSFLGILENRVTLFQRILLEGYREQFAIESGIYK | soluble
2 | AIATNDANHLESNCVEEQVQQSLREPWWWLRWRDTPRQQLRGTLFVYTATCPDEKIQRERGFAADHEQVYAFVSFGPEVETDPREHVVEIVKALTSMRSFVETLERTLFEDEDSEPAARTYTHDEPCSVAHHSADADQQFLVETVRHDRIAAAYSSMSQEMHTAPEGARPDCFSKGTSQDHETDTSQPILRKKDETDTWVVALGPDHLVASHTLAACGCALFLGLEWDFRACRSRSDDDFRIMELFQEDLKSRVTWLAPRLGLQHKHACSAQCKDQARNRDSSWDVLLREWLPQAIPGGPRHPQAM | soluble
3 | AIGRYTPADSTQELRDAARRLLPSSSLDKDLERLLRTWHKGYSTKTKRGERPCINSDTGPYTSDSVYIRRLSALPSAVPIQFNPAVKQCIKLYTEERRRLVRYMLSLADLYFPQIEETLDRHNLPIELKYLTIV | not soluble
4 | AKDDKVTVLSIERGNKLVYLEKLGLRGDQFYYKIERIRESNGVVYIYHTSYIPEQYINANYPNLEYYSSIYNRFKLDYHIHMNDEHFEEINEIVFPTPEHAASVLGVDEQFPTVLQTKITKLESTGQVLEYSETYKRSDYYK | soluble
5 | AKEDNIEMQGTVLETLPNTMFRVELENGHVVTAHISGKMRKNYIRILTGDKVTVELTPYDLSKGRIVFRSR | soluble
6 | AKITKVQVGEALVGDGNEVAHIDLIIGPRGSPAETAFCNGLVNNKHGFTSLLAVIAPNLPCKPNTLMFNKVTINDARQAVQMFGPAQHGVAMAVQDAVAEGIIPADEADDLYVLVGVFIHWEAADDAKIQKYNYEATKLSIQRAVNGEPKASVVTEQRKSATHPFAANA | soluble
7 | AKQAAQSTFNSFHEWAKQAEAMRNPSRMDIYKIYKQDAPHSHPMSDEQQEEFLHTLKALNGKNGIEVRTQDHDSVRNKKDRNLDKYIAESPDAKRFFYRIIPKHERREDKNQGRLTIGVQPQYATQLTRAMATLIGKESAITHGKVIGPACHGQMTDSAVLYINGDVAKAEKLGEKLKQMSGIPLDAFVEHTPLSMQSLSKGLSYAESILGDTRGHGMSRAEVISDALRMDGMPFLARLKLSLSANG | not soluble
8 | AKVIFVLAMDVSGKIASSVESWSSFEDRKNFRKITTEIGNVVMGRITFEEIGRPLPERLNVVLTRRPKTSNNPSLVFFNGSPADVVKFLEGKGYERVAVIGGKTVFTEFLREKLVDELFVTVEPYVFGKGIPFFDEFEGYFPLKLLEMRRLNERGTLFLKYSVEKSHR | soluble
9 | ALAETVSDFRLPNGLEVVVIEDHRAPVVTHMVWYRVGAADEPPGHSGIAHFLEHLMFKGTDEMSAGEFSATVEAQGGDDNAFTSWDYTAYFQRVAADRLDLMMKMEADRMRDLQMTEEDVRTERQVVLEERSQRTDSDPGAVFSEQSRAAAYLNHPYGIPIIGWRHEIEQLGREDAFSFYRTYYAPNNAILVVAGDVDPAEVRRMAEEHYGALEPTP | not soluble
10 | AMKNWKTSAESILTTGPVVPVIVVKKLEHAVPMAKALVAGGVRVLNVTLRTECAVDAIRAIAKEVPEAIVGAGTVLNPQQLAEVTEAGAQFAISPGLTEPLLKAATEGTIPLIPGISTVSELMLGMDYGLKEFKFFPAEANGGVKALQAIAGPFSQVRFCPTGGISPANYRDYLALKSVLCIGGSWLVPADALEAGDYDRITKLAREAVEGAKL | soluble
11 | AMKNYYSSNPTFYLGIDCIIFGFNEGEISLLLLKRNFEPAMGEWSLMGGFVQKDESVDDAAKRVLAELTGLENVYMEQVGAFGAIDRDPGERVVSIAYYALININEYDRELVQKHNAYWVNINELPALIFDHPEMVDKAREMMKQKASVEPIGFNLLPKLFTLSQLQSLYEAIYGEPMDKRNFRKRVAEMDFIEKTDKIDKLGSKRGAALYKFNGKAYRKDPKFKL | soluble
12 | ANFQYIITEKKGKNSSVGLIQLNRPKALNALCNGLIEELNQALETFEEDPAVGAIVLTGGEKAFAAGADIKEMQNRTFQDCYSGKFLSHWDHITRIKKPVIAAVNGYALGGGCELAMMCDIIYAGEKAQFGQPEILLGTIPGAGGTQRLTRAVGKSLAMEMVLTGDRISAQDAKQAGLVSKIFPVETLVEEAIQCAEKIANNSKIIVAMAKESVNAAFEMTLTEGNKLEKKLFYSTFATDDRREGMSAFVEKRKANFKDH | soluble
13 | ANTAFVSSACNTQKIPSGSPFNRNLRAMLADLRQNTAFSGYDYKTSRAGSGGAPTAYGRATCKQSISQSDCTACLSNLVNRIFSICNNAIGARVQLVDCFIQYEQRSF | soluble
14 | APMKLYGAVMSWNLTRCATALEEAGSDYEIVPINFATAEHKSPEHLVRNPFGQVPALQDGDLYLFESRAICKYAARKNKPELLREGNLEEAAMVDVWIEVEANQYTAALNPILFQVLISPMLGGTTDQKVVDENLEKLKKVLEVYEARLTKCKYLAGDFLSLADLNHVSVTLCLFATPYASVLDAYPHVKAWWSGLMERPSVQKVAALMKPSA | soluble
15 | ARNKALKADGAFNGVEKEGLFKAMKHYGYEGLAVLVSERGHYSLKKAADVLGLGQEGLVAVKTDANNRIVVDDLKTKIAELKEQNIKPIAVIGVAGTTETGSVDPLSQIAQVCQEHNCHFHVDAAWGGATLMSNHYRHLLEGVELADSVTIDAHKQLYIPMGAGMVLFKDPDAMKSIEHHAQYILRKGSKDLGSHTLEGSRSGMAMLVYAAMHIISRPGYELLIDQSIEKARYFADLIKQQDDFELVSEPELCLLTYRYLPPLIREALDKAEGTQKEKLNELINQLTQFIQKRQRETGKSFVSRTRLNPDQWQRMNTIVFRVVLANPLTTRDILSSVLDEQREIAKQAPSLTAKIEEMASDILGA | not soluble
16 | ARPAFVNKLWSMVNDKSNEKFIHWSTSGESIVVPNRERFVQEVLPKYFKHSNFASFVRQLNMYGWHKVQDVKSGSMLSNNDSRWEFENERHA | soluble
17 | ASGSDENDVVIIGGGPGGYVAAIKAAQLGFKTTCIEKRGALGGTCLNVGCIPSKALLHSSHMYHEAKHSFANHGVKVSNVEIDLAAMMGQKDKAVSNLTRGIEGLFKKNKVTYVKGYGKFVSPSEISVDTIEGENTVVKGKHIIIATGSDVKSLPGVTIDEKKIVSSTGALALSEIPKKLVVIGAGYIGLEMGSVWGRIGSEVTVVEFASEIVPTMDAEIRKQFQRSLEKQGMKFKLKTKVVGVDTSGDGVKLTVEPSAGGEQTIIEADVVLVSAGRTPFTSGLNLDKIGVETDKLGRILVNERFSTNVSGVYAIGDVIPGPMLAHKAEEDGVACVEYLAGKVGHVDYDKVPGVVYTNPEVASVGKTEEQVKETGVEYRVGKFPFMANSRAKAIDNAEGLVKIIAEKETDKILGVHIMAPNAGELIHEAAIALQYDASSEDIARVCHAHPTMSEAIKEAAMATYDKPIHI | soluble
18 | ASNFTQFVLVDNGGTGDVTVAPSNFANGVAEWISSNSRSQAYKVTCSVRQSSAQNRKYTIKVEVPKVATQTVGGVELPVAAWRSYLNMELTIPIFATNSDCELIVKAMQGLLKDGNPIPSAIAANSGIYANFTQFVLVDNGGTGDVTVAPSNFANGVAEWISSNSRSQAYKVTCSVRQSSAQNRKYTIKVEVPKVATQTVGGVELPVAAWRSYLNMELTIPIFATNSDCELIVKAMQGLLKDGNPIPSAIAANSGIY | soluble
19 | ASNIYKIKEENKNEDICFIAGIGDTNGYGWGIAKELSKRNVKIIFGIWPPVYNIFMKNYKNGKFDNDMIIDKDKKMNILDMLPFDASFDTANDIDEETKNNKRYNMLQNYTIEDVANLIHQKYGKINMLVHSLANAKEVQKDLLNTSRKGYLDALSKSSYSLISLCKYFVNIMKPQSSIISLTYHASQKVVPGYGGGMSSAKAALESDTRVLAYHLGRNYNIRINTISAGPLKSRAATAINKLNNTYENNTNQNKNRNSHDVHNIMNNSGEKEEKKNSASQNYTFIDYAIEYSEKYAPLRQKLLSTDIGSVASFLLSRESRAITGQTIYVDNGLNIMFLPDDIYRNENE | soluble
20 | ASQKVEKTVIKNETGTISISQLNKNVWVHTELGSFNGEAVPSNGLVLNTSKGLVLVDSSWDDKLTKELIEMVEKKFQKRVTDVIITHAHASRIGGIKTLKERGIKAHSTALTAELAKKNGYEEPLGDLQTVTNLKFGNMKVETFYPGKGHTEDNIVVWLPQYNILVGGCLVKSTSAKDLGNVADAYVNEWSTSIENVLKRYRNINAVVPGHGEVGDKGLLLHTLDLLK | soluble
21 | ASSPANKVYQDRFESMYSKIKDPANGYFSEQGIPYHSIETLMVEAPDYGHVTTSQAMSYYMWLEAMHGRFSGDFTGFDKSWSVTEQYLIPTEKDQPNTSMSRYDANKPATYAPEFQDPSKYPSPLDTSQPVGRDPINSQLTSAYGTSMLYGMHWILDVDNWYGFGARADGTSKPSYINTFQRGEQESTWETIPQPCWDEHKFGGQYGFLDLFTKDTGTPAKQFKYTNAPDADARAVQATYWADQWAKEQGKSVSTSVGKATKMGDYLRYSFFDKYFRKIGQPSQAGTGYDAAHYLLSWYYAWGGGIDSTWSWIIGSSHNHFGYQNPFAAWVLSTDANFKPKSSNGASDWAKSLDRQLEFYQWLQSAEGAIAGGATNSWNGRYEAVPSGTSTFYGMGYVENPVYADPGSNTWFGMQVWSMQRVAELYYKTGDARAKKLLDKWAKWINGEIKFNADGTFQIPSTIDWEGQPDTWNPTQGYTGNANLHVKVVNYGTDLGCASSLANTLTYYAAKSGDETSRQNAQKLLDAMWNNYSDSKGISTVEQRGDYHRFLDQEVFVPAGWTGKMPNGDVIKSGVKFIDIRSKYKQDPEWQTMVAALQAGQVPTQRLHRFWAQSEFAVANGVYAILFPD | soluble
22 | ASTLGFKARIHMSHDATDWKINKLLQNGVEVKIYDDNFSNAVAAARVSSQRDPYSYFIDDEGSKLLFAGYATAGERVKKQLSKMQIEVSKEHPLVVYLPAGVGGSPSGVAFGLKLQFADAVIPIFVEPTHMPSVLLGMASGLNHDISVYDIGIDGKTAADGLAVGRPSMIAGKYMKDKLFGIATVSDSDMFAYQGMLKKLENIEVEPSAAVGIRGLIQSKEISEIPDSATHMVWATGGSMVPKNTMHKYEDKAVRIFNTWKS | not soluble
23 | ASTRNLMIEGENLEVLKLLQKSYAGRAKLVYIDPPYNTGKDFVYSDNFTDSLRHYLELTGQTTDGKRISSHTDASGRFHTDWLNMIYPRLKLARDLLADDGVIAVHIDEHEQHALVLVMREIFGEDNELGVAVWDKRNPKGDARGIAYQHESIVLFARDAQLLFERAPLKRPKRNAQRMLDAARGAIAGAATIADANAAYRAWVKSQTTLSGGEAMYDRISADGRVYRLVSMAWPNKKKAPDDYFVPLVHPVTGKPCPVPERGWRNPPATMQALIDKGLVEFGADETTQPQRIYFLDENMYENVPSVLPFGGSDDALMKSLGIPFDQPKPVEFAASIIGWCTDGDDLIVDFFGGSGTTGHAVMALNAADGGNRRYVLVQLPEPLDAGSKDQKAAADFCAAQRVPLNLAELTKERLRRAAARVAAEHPGTR | soluble
